# In the MegaScale stability set (Tsuboyama et al. 2023):
# B1: 2K2A (parent)
# chain: ELREAFRLYDKEGNGYISTDVMREILAELDETLSSEDLDAMIDEIDADGSGTVDFEEFMGVMT
# B2: EEHEE_rd4_0763 (parent)
# chain: LTVHVGNVTYHFDNPEQAEEWAKRMAKKYQGQIHVKDGQFRIE
# Variants of: B1
# Assay: folding stability dG (cDNA display proteolysis); higher = more stable
# Details: PBS, room temperature
row,Variant,folding stability dG
1,ELREFFRLYDKEGNGYISTDVMREILAELDETLSSEDLDAMIDEIDADGSGTVDFEEFMGVMT,2.74 kcal/mol
2,ELREGFRLYDKEGNGYISTDVMREILAELDETLSSEDLDAMIDEIDADGSGTVDFEEFMGVMT,1 kcal/mol
3,ELREEFRLYDKEGNGYISTDVMREILAELDETLSSEDLDAMIDEIDADGSGTVDFEEFMGVMT,1.21 kcal/mol
4,ELREDFRLYDKEGNGYISTDVMREILAELDETLSSEDLDAMIDEIDADGSGTVDFEEFMGVMT,1.18 kcal/mol
5,ELRECFRLYDKEGNGYISTDVMREILAELDETLSSEDLDAMIDEIDADGSGTVDFEEFMGVMT,3.22 kcal/mol
6,ELRDAFRLYDKEGNGYISTDVMREILAELDETLSSEDLDAMIDEIDADGSGTVDFEEFMGVMT,2 kcal/mol
7,ELRCAFRLYDKEGNGYISTDVMREILAELDETLSSEDLDAMIDEIDADGSGTVDFEEFMGVMT,2.85 kcal/mol
8,ELRHAFRLYDKEGNGYISTDVMREILAELDETLSSEDLDAMIDEIDADGSGTVDFEEFMGVMT,1.36 kcal/mol
9,ELRWAFRLYDKEGNGYISTDVMREILAELDETLSSEDLDAMIDEIDADGSGTVDFEEFMGVMT,1.41 kcal/mol
10,ELRSAFRLYDKEGNGYISTDVMREILAELDETLSSEDLDAMIDEIDADGSGTVDFEEFMGVMT,1.24 kcal/mol
11,ELRNAFRLYDKEGNGYISTDVMREILAELDETLSSEDLDAMIDEIDADGSGTVDFEEFMGVMT,1.4 kcal/mol
12,ELRKAFRLYDKEGNGYISTDVMREILAELDETLSSEDLDAMIDEIDADGSGTVDFEEFMGVMT,1.64 kcal/mol
13,ELRLAFRLYDKEGNGYISTDVMREILAELDETLSSEDLDAMIDEIDADGSGTVDFEEFMGVMT,1.53 kcal/mol
14,ELRVAFRLYDKEGNGYISTDVMREILAELDETLSSEDLDAMIDEIDADGSGTVDFEEFMGVMT,1.39 kcal/mol
15,ELRFAFRLYDKEGNGYISTDVMREILAELDETLSSEDLDAMIDEIDADGSGTVDFEEFMGVMT,1.32 kcal/mol
16,ELRPAFRLYDKEGNGYISTDVMREILAELDETLSSEDLDAMIDEIDADGSGTVDFEEFMGVMT,0.889 kcal/mol
17,ELRTAFRLYDKEGNGYISTDVMREILAELDETLSSEDLDAMIDEIDADGSGTVDFEEFMGVMT,1.23 kcal/mol
18,ELRAAFRLYDKEGNGYISTDVMREILAELDETLSSEDLDAMIDEIDADGSGTVDFEEFMGVMT,1.77 kcal/mol
19,ELRMAFRLYDKEGNGYISTDVMREILAELDETLSSEDLDAMIDEIDADGSGTVDFEEFMGVMT,1.39 kcal/mol
20,ELRIAFRLYDKEGNGYISTDVMREILAELDETLSSEDLDAMIDEIDADGSGTVDFEEFMGVMT,1.43 kcal/mol
21,ELRQAFRLYDKEGNGYISTDVMREILAELDETLSSEDLDAMIDEIDADGSGTVDFEEFMGVMT,1.46 kcal/mol
22,ELRRAFRLYDKEGNGYISTDVMREILAELDETLSSEDLDAMIDEIDADGSGTVDFEEFMGVMT,1.6 kcal/mol
23,ELRYAFRLYDKEGNGYISTDVMREILAELDETLSSEDLDAMIDEIDADGSGTVDFEEFMGVMT,1.43 kcal/mol
24,ELRGAFRLYDKEGNGYISTDVMREILAELDETLSSEDLDAMIDEIDADGSGTVDFEEFMGVMT,0.935 kcal/mol
25,ECREAFRLYDKEGNGYISTDVMREILAELDETLSSEDLDAMIDEIDADGSGTVDFEEFMGVMT,2.73 kcal/mol
26,EGREAFRLYDKEGNGYISTDVMREILAELDETLSSEDLDAMIDEIDADGSGTVDFEEFMGVMT,0.65 kcal/mol
27,EHREAFRLYDKEGNGYISTDVMREILAELDETLSSEDLDAMIDEIDADGSGTVDFEEFMGVMT,1.16 kcal/mol

row,Variant,folding stability dG
1,EIREAFRLYDKEGNGYISTDVMREILAELDETLSSEDLDAMIDEIDADGSGTVDFEEFMGVMT,1.51 kcal/mol
2,ERREAFRLYDKEGNGYISTDVMREILAELDETLSSEDLDAMIDEIDADGSGTVDFEEFMGVMT,0.34 kcal/mol
3,EAREAFRLYDKEGNGYISTDVMREILAELDETLSSEDLDAMIDEIDADGSGTVDFEEFMGVMT,1.23 kcal/mol
4,EYREAFRLYDKEGNGYISTDVMREILAELDETLSSEDLDAMIDEIDADGSGTVDFEEFMGVMT,1.96 kcal/mol
5,EWREAFRLYDKEGNGYISTDVMREILAELDETLSSEDLDAMIDEIDADGSGTVDFEEFMGVMT,2.66 kcal/mol
6,ESREAFRLYDKEGNGYISTDVMREILAELDETLSSEDLDAMIDEIDADGSGTVDFEEFMGVMT,0.529 kcal/mol
7,EMREAFRLYDKEGNGYISTDVMREILAELDETLSSEDLDAMIDEIDADGSGTVDFEEFMGVMT,1.74 kcal/mol
8,EFREAFRLYDKEGNGYISTDVMREILAELDETLSSEDLDAMIDEIDADGSGTVDFEEFMGVMT,1.88 kcal/mol
9,EEREAFRLYDKEGNGYISTDVMREILAELDETLSSEDLDAMIDEIDADGSGTVDFEEFMGVMT,0.678 kcal/mol
10,EDREAFRLYDKEGNGYISTDVMREILAELDETLSSEDLDAMIDEIDADGSGTVDFEEFMGVMT,0.869 kcal/mol
11,EQREAFRLYDKEGNGYISTDVMREILAELDETLSSEDLDAMIDEIDADGSGTVDFEEFMGVMT,0.705 kcal/mol
12,EKREAFRLYDKEGNGYISTDVMREILAELDETLSSEDLDAMIDEIDADGSGTVDFEEFMGVMT,0.383 kcal/mol
13,ENREAFRLYDKEGNGYISTDVMREILAELDETLSSEDLDAMIDEIDADGSGTVDFEEFMGVMT,0.689 kcal/mol
14,EPREAFRLYDKEGNGYISTDVMREILAELDETLSSEDLDAMIDEIDADGSGTVDFEEFMGVMT,0.726 kcal/mol
15,EVREAFRLYDKEGNGYISTDVMREILAELDETLSSEDLDAMIDEIDADGSGTVDFEEFMGVMT,1.14 kcal/mol
16,ETREAFRLYDKEGNGYISTDVMREILAELDETLSSEDLDAMIDEIDADGSGTVDFEEFMGVMT,0.594 kcal/mol
17,ELPEAFRLYDKEGNGYISTDVMREILAELDETLSSEDLDAMIDEIDADGSGTVDFEEFMGVMT,0.63 kcal/mol
18,ELMEAFRLYDKEGNGYISTDVMREILAELDETLSSEDLDAMIDEIDADGSGTVDFEEFMGVMT,1.93 kcal/mol
19,ELLEAFRLYDKEGNGYISTDVMREILAELDETLSSEDLDAMIDEIDADGSGTVDFEEFMGVMT,2.2 kcal/mol
20,ELVEAFRLYDKEGNGYISTDVMREILAELDETLSSEDLDAMIDEIDADGSGTVDFEEFMGVMT,1.77 kcal/mol
21,ELYEAFRLYDKEGNGYISTDVMREILAELDETLSSEDLDAMIDEIDADGSGTVDFEEFMGVMT,2.48 kcal/mol
22,ELWEAFRLYDKEGNGYISTDVMREILAELDETLSSEDLDAMIDEIDADGSGTVDFEEFMGVMT,2.29 kcal/mol
23,ELQEAFRLYDKEGNGYISTDVMREILAELDETLSSEDLDAMIDEIDADGSGTVDFEEFMGVMT,1.71 kcal/mol
24,ELIEAFRLYDKEGNGYISTDVMREILAELDETLSSEDLDAMIDEIDADGSGTVDFEEFMGVMT,1.99 kcal/mol
25,ELFEAFRLYDKEGNGYISTDVMREILAELDETLSSEDLDAMIDEIDADGSGTVDFEEFMGVMT,2.11 kcal/mol
26,ELAEAFRLYDKEGNGYISTDVMREILAELDETLSSEDLDAMIDEIDADGSGTVDFEEFMGVMT,1.99 kcal/mol
27,ELGEAFRLYDKEGNGYISTDVMREILAELDETLSSEDLDAMIDEIDADGSGTVDFEEFMGVMT,1.48 kcal/mol

row,Variant,folding stability dG
1,ELHEAFRLYDKEGNGYISTDVMREILAELDETLSSEDLDAMIDEIDADGSGTVDFEEFMGVMT,1.71 kcal/mol
2,ELKEAFRLYDKEGNGYISTDVMREILAELDETLSSEDLDAMIDEIDADGSGTVDFEEFMGVMT,1.86 kcal/mol
3,ELSEAFRLYDKEGNGYISTDVMREILAELDETLSSEDLDAMIDEIDADGSGTVDFEEFMGVMT,1.42 kcal/mol
4,ELNEAFRLYDKEGNGYISTDVMREILAELDETLSSEDLDAMIDEIDADGSGTVDFEEFMGVMT,1.34 kcal/mol
5,ELTEAFRLYDKEGNGYISTDVMREILAELDETLSSEDLDAMIDEIDADGSGTVDFEEFMGVMT,1.44 kcal/mol
6,ELEEAFRLYDKEGNGYISTDVMREILAELDETLSSEDLDAMIDEIDADGSGTVDFEEFMGVMT,2.16 kcal/mol
7,ELDEAFRLYDKEGNGYISTDVMREILAELDETLSSEDLDAMIDEIDADGSGTVDFEEFMGVMT,1.62 kcal/mol
8,YLREAFRLYDKEGNGYISTDVMREILAELDETLSSEDLDAMIDEIDADGSGTVDFEEFMGVMT,2.41 kcal/mol
9,QLREAFRLYDKEGNGYISTDVMREILAELDETLSSEDLDAMIDEIDADGSGTVDFEEFMGVMT,2.08 kcal/mol
10,LLREAFRLYDKEGNGYISTDVMREILAELDETLSSEDLDAMIDEIDADGSGTVDFEEFMGVMT,2.19 kcal/mol
11,DLREAFRLYDKEGNGYISTDVMREILAELDETLSSEDLDAMIDEIDADGSGTVDFEEFMGVMT,2.41 kcal/mol
12,KLREAFRLYDKEGNGYISTDVMREILAELDETLSSEDLDAMIDEIDADGSGTVDFEEFMGVMT,2.27 kcal/mol
13,HLREAFRLYDKEGNGYISTDVMREILAELDETLSSEDLDAMIDEIDADGSGTVDFEEFMGVMT,2.1 kcal/mol
14,FLREAFRLYDKEGNGYISTDVMREILAELDETLSSEDLDAMIDEIDADGSGTVDFEEFMGVMT,2.36 kcal/mol
15,TLREAFRLYDKEGNGYISTDVMREILAELDETLSSEDLDAMIDEIDADGSGTVDFEEFMGVMT,2.21 kcal/mol
16,SLREAFRLYDKEGNGYISTDVMREILAELDETLSSEDLDAMIDEIDADGSGTVDFEEFMGVMT,2.28 kcal/mol
17,ALREAFRLYDKEGNGYISTDVMREILAELDETLSSEDLDAMIDEIDADGSGTVDFEEFMGVMT,2.29 kcal/mol
18,GLREAFRLYDKEGNGYISTDVMREILAELDETLSSEDLDAMIDEIDADGSGTVDFEEFMGVMT,2.03 kcal/mol
19,VLREAFRLYDKEGNGYISTDVMREILAELDETLSSEDLDAMIDEIDADGSGTVDFEEFMGVMT,1.98 kcal/mol
20,RLREAFRLYDKEGNGYISTDVMREILAELDETLSSEDLDAMIDEIDADGSGTVDFEEFMGVMT,2.25 kcal/mol
21,PLREAFRLYDKEGNGYISTDVMREILAELDETLSSEDLDAMIDEIDADGSGTVDFEEFMGVMT,1.84 kcal/mol
22,ILREAFRLYDKEGNGYISTDVMREILAELDETLSSEDLDAMIDEIDADGSGTVDFEEFMGVMT,2.02 kcal/mol
23,WLREAFRLYDKEGNGYISTDVMREILAELDETLSSEDLDAMIDEIDADGSGTVDFEEFMGVMT,2.65 kcal/mol
24,NLREAFRLYDKEGNGYISTDVMREILAELDETLSSEDLDAMIDEIDADGSGTVDFEEFMGVMT,2.25 kcal/mol
25,MLREAFRLYDKEGNGYISTDVMREILAELDETLSSEDLDAMIDEIDADGSGTVDFEEFMGVMT,2.02 kcal/mol

# Variants of: B2
# Assay: as above
# Details: PBS, room temperature
row,Variant,folding stability dG
1,LTVHVGNVTYHFDNPEQAEEWAKRMAKKYQGQIHVKDGQFRIY,1.71 kcal/mol
2,LTVHVGNVTYHFDNPEQAEEWAKRMAKKYQGQIHVKDGQFRIW,1.55 kcal/mol
3,LTVHVGNVTYHFDNPEQAEEWAKRMAKKYQGQIHVKDGQFRIP,1.15 kcal/mol
4,LTVHVGNVTYHFDNPEQAEEWAKRMAKKYQGQIHVKDGQFRIS,1.4 kcal/mol
5,LTVHVGNVTYHFDNPEQAEEWAKRMAKKYQGQIHVKDGQFRIR,1.36 kcal/mol
6,LTVHVGNVTYHFDNPEQAEEWAKRMAKKYQGQIHVKDGQFRIQ,1.29 kcal/mol
7,LTVHVGNVTYHFDNPEQAEEWAKRMAKKYQGQIHVKDGQFRIV,1.99 kcal/mol
8,LTVHVGNVTYHFDNPEQAEEWAKRMAKKYQGQIHVKDGQFRIT,1.66 kcal/mol
